Measurements from the supplement of paper PMC6379048.

Tests used:
Test in all cases: Kd (EC50 corrected by depletion factor)
CSNK2A1 = CSNK2A1 (UniProt P68400)
Method in brief: (§1)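 HEK293-FT lysate (2.5 mg protein/well) was treated with free RNA oligos (0 nM to 30 μM) for 1 h at 4°C, then with the same oligos on NHS-Sepharose beads for 30 min at 4°C. Bound proteins were quantified by label-free LC-MS/MS relative to the control. EC50 came from a four-parameter log-logistic fit, and Kd is EC50 times a protein-dependent depletion factor.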

CSNK2B = CSNK2B (UniProt P67870)
Chain of CSNK2B (P67870 whole entry): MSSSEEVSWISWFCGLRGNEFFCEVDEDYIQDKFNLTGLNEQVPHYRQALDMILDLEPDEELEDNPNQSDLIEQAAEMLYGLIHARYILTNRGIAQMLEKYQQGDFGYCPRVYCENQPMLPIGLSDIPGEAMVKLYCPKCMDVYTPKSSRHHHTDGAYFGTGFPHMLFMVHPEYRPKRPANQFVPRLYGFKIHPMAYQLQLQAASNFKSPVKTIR
Method in brief: as §1

GPATCH11 = GPATCH11 (UniProt Q8N954)
Chain of GPATCH11 (Q8N954 whole entry): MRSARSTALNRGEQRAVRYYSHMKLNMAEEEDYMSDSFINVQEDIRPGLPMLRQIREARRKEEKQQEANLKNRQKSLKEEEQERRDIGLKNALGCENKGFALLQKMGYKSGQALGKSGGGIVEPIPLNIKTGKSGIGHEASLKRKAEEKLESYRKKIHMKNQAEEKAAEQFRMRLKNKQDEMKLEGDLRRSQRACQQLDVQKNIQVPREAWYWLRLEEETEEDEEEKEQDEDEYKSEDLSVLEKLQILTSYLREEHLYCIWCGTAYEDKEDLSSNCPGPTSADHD
Method in brief: as §1

SF3B3 = target: T1, SF3B3 (UniProt Q15393)
T1 sequence: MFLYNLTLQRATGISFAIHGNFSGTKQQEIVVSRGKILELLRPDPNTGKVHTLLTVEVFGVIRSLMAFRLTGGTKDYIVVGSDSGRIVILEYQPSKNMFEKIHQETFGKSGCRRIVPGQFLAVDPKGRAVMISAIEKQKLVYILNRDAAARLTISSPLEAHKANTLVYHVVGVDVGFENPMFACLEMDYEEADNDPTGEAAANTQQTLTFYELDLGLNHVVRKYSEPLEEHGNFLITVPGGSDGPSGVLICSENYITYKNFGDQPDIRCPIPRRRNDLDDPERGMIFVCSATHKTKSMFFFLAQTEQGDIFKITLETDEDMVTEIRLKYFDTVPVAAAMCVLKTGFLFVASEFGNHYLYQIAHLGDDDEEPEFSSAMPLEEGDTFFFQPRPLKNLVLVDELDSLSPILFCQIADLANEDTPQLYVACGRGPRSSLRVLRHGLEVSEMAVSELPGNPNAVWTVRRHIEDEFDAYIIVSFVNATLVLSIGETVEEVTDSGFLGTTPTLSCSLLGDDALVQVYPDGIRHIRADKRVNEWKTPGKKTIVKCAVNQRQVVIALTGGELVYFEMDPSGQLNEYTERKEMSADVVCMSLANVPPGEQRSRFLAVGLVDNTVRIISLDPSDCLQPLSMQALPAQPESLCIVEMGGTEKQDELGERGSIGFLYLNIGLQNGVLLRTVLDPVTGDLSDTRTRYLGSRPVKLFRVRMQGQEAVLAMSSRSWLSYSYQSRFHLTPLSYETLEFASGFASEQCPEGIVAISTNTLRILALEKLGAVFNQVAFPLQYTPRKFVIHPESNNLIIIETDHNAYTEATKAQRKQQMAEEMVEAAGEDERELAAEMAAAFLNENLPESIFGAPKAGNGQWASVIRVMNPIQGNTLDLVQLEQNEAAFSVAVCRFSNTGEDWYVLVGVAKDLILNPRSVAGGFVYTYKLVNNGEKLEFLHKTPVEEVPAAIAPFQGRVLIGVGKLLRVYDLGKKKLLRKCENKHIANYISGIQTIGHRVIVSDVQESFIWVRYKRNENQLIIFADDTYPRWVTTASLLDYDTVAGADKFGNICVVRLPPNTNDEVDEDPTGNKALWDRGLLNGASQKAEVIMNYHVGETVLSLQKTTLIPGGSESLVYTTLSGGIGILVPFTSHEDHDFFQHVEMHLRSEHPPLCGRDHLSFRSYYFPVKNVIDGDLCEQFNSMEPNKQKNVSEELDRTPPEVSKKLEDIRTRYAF
Method in brief: as §1

SF3B5 = target: T2, SF3B5 (UniProt Q9BWJ5)
T2 sequence: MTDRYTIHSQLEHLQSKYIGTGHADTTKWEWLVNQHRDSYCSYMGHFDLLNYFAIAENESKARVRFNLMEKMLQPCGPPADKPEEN
Method in brief: as §1

SRSF10 = SRSF10 (UniProt O75494)
Chain of SRSF10 (O75494 whole entry): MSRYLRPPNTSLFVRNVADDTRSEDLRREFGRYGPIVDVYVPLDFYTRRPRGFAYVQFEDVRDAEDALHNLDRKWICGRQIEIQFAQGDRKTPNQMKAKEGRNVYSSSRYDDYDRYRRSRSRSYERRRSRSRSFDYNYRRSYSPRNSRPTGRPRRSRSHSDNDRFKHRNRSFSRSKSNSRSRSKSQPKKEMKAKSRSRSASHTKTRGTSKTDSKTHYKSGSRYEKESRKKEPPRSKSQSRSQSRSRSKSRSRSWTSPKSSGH
Method in brief: as §1

MRPL21 = MRPL21 (UniProt Q7Z2W9)
Method in brief: as §1

RPS13 = RPS13 (UniProt P62277)
Method in brief: as §1

CNBP = CNBP (UniProt P62633)
Chain of CNBP (P62633 whole entry): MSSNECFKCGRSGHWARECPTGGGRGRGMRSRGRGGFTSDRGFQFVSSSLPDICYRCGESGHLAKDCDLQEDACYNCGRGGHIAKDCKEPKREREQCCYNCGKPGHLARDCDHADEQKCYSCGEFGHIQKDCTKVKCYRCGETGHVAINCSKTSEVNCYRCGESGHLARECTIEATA
Method in brief: as §1

MRPS23 = MRPS23 (UniProt Q9Y3D9)
Method in brief: as §1

MRPS34 = MRPS34 (UniProt P82930)
Method in brief: as §1

PRPF3 = target: T3, PRPF3 (UniProt O43395)
T3 sequence: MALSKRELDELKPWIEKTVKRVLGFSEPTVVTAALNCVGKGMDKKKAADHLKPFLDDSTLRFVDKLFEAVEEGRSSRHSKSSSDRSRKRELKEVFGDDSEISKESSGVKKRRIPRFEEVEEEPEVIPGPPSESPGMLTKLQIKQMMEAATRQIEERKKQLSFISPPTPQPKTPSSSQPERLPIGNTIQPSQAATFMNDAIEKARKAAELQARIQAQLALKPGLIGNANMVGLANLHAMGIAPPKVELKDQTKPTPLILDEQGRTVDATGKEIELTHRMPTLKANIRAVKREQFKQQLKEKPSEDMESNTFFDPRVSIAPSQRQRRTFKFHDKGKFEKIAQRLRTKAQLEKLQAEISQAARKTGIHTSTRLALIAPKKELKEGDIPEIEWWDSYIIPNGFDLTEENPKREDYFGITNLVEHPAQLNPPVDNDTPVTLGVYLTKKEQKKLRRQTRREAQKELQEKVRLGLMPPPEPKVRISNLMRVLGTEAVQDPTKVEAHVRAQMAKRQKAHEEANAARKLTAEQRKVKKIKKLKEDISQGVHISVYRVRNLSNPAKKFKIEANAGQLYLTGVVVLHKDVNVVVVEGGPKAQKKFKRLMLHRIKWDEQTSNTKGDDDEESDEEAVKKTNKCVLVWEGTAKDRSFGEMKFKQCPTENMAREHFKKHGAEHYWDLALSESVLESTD
Method in brief: as §1

PTCD3 = PTCD3 (UniProt Q96EY7)
Method in brief: as §1

TARDBP = TARDBP (UniProt Q13148)
Chain of TARDBP (Q13148 whole entry): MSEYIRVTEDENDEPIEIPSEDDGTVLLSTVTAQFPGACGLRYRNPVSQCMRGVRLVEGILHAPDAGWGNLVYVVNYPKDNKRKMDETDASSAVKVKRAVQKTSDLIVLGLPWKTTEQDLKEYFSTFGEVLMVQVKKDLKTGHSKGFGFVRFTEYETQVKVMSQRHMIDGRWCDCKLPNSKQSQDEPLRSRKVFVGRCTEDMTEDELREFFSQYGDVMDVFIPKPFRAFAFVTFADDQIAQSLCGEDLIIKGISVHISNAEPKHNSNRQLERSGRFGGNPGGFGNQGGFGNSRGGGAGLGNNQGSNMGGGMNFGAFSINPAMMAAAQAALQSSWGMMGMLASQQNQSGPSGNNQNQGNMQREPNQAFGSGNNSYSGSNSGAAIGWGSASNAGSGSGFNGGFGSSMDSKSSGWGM
Method in brief: as §1

Chain of CSNK2A1 (P68400 whole entry, looked up): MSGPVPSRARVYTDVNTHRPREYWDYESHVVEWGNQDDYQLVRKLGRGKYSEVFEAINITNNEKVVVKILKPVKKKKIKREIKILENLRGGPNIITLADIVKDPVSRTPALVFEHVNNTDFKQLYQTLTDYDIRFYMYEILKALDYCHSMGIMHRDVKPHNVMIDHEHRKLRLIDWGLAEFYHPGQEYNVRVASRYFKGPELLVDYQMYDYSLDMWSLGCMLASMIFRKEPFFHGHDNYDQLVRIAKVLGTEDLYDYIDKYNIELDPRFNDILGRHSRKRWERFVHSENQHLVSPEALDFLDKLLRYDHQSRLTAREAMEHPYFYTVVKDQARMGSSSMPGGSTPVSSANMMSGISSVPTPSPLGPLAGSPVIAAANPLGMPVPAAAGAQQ

AAUAAA
Kd (CSNK2A1): 78.6 nM | Kd (CSNK2B): 2220 nM | Kd (GPATCH11): 32.5 nM | Kd (SF3B3): 669 nM | Kd (SF3B5): 766 nM | Kd (SRSF10): 156 nM

CUGUCCU
Kd (MRPL21): 57.2 nM | Kd (RPS13): 39.9 nM

UAUUUAU
Kd (CNBP): 1270 nM | Kd (MRPS23): 15.6 nM | Kd (MRPS34): 46.2 nM | Kd (PRPF3): 2670 nM | Kd (PTCD3): 27.4 nM | Kd (TARDBP): 1320 nM
